Experiment in all cases: FP
Assay [1] has as its target GABARAPL2_(1-117) (human) (UniProt P60520).
In a further assay the target is LC3A_(1-120) (human) (UniProt Q9H492).
A further assay addresses LC3C_(1-126) (human) (UniProt Q9BXW4).

GABARAPL2_(1-117) (human), sequence (P60520 whole entry): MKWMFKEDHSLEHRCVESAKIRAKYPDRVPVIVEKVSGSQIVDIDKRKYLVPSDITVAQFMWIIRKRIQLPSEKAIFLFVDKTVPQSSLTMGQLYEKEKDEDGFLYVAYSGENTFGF
LC3C_(1-126) (human), sequence (Q9BXW4 1-126): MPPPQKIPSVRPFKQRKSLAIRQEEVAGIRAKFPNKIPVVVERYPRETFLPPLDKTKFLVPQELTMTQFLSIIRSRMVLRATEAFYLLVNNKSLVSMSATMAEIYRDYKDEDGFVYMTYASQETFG

In general, Ki refers to the equilibrium dissociation constant of an inhibitor or competing ligand from its target. A lower Ki goes with a stronger hold on the target. In the case of PCM1-LIR, the Ki is 26.2 µM in assay [1], 179 µM with LC3A_(1-120) (human) and 84.3 µM with LC3C_(1-126) (human).
